Reference: US20110008829

Legend:
[1] = target: T1, HMGS with 12 SH3 peptide ligands recombined to the C-terminus, P54839
T1 sequence (P54839 whole entry, looked up): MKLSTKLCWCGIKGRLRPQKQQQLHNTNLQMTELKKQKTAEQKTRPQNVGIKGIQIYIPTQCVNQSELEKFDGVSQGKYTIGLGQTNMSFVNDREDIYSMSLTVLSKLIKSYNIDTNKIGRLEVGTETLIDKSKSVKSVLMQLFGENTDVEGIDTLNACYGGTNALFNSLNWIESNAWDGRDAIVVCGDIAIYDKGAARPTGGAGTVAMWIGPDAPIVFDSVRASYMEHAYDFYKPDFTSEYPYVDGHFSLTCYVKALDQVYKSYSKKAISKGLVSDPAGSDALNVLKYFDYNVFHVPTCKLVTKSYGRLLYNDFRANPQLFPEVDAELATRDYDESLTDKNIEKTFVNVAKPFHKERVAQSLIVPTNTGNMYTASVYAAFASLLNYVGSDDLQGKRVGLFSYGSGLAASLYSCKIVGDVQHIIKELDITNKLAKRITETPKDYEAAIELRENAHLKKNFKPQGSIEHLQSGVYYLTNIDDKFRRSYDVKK

[2] = target: T2, HMGS with 6 SH3 peptide ligands recombined to the C-terminus, P54839
T2 sequence (P54839 whole entry, looked up): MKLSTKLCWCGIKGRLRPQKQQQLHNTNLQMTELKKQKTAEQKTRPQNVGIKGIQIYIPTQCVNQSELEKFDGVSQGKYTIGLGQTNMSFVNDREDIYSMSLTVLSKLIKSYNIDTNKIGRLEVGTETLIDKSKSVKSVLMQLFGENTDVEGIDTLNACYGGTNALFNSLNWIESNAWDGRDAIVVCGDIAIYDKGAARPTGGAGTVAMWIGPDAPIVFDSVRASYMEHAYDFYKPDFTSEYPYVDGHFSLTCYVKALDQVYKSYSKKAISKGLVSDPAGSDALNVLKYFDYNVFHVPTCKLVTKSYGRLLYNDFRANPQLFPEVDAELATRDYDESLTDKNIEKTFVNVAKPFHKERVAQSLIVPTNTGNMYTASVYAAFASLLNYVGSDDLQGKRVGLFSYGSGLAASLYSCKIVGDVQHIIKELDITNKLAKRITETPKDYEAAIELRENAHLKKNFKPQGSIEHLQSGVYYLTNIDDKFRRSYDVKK

B1: HMGR with an N-terminal SH3 domain (protein)
chain: AEYVRALFDFNGNDEEDLPFKKGDILRIRDKPEEQWWNAEDSEGKRGMIPVPYVEKYRVLTNKTVISGSKVKSLSSAQSSSSGPSSSSEEDDSRDIESLDKKIRPLEELEALLSSGNTKQLKNKEVAALVIHGKLPLYALEKKLGDTTRAVAVRRKALSILAEAPVLASDRLPYKNYDYDRVFGACCENVIGYMPLPVGVIGPLVIDGTSYHIPMATTEGCLVASAMRGCKAINAGGGATTVLTKDGMTRGPVVRFPTLKRSGACKIWLDSEEGQNAIKKAFNSTSRFARLQHIQTCLAGDLLFMRFRTTTGDAMGMNMISKGVEYSLKQMVEEYGWEDMEVVSVSGNYCTDKKPAAINWIEGRGKSVVAEATIPGDVVRKVLKSDVSALVELNIAKNLVGSAMAGSVGGFNAHAANLVTAVFLALGQDPAQNVESSNCITLMKEVDGDLRISVSMPSIEVGTIGGGTVLEPQGAMLDLLGVRGPHATAPGTNARQLARIVACAVLAGELSLCAALAAGHLVQSHMTHNRKPAEPTKPNNLDATDINRLKDGSVTCIKS
mevalonate production in E. coli, improvement [1]: reduced somewhat (to 7-fold) when the number of possible interactions was further increased
mevalonate production in E. coli, improvement [2]: mevalonate production reached a maximum ˜10-fold improvement with 6 possible interactions
